Data taken from doi:10.1101/2022.07.21.500812.

Tests used:
[1] = target: rattus norvegicus Unc5D residues 32-307 (rUnc5D^IgIgTSP) (rattus norvegicus) (UniProt F1LW30); experiment: crystal structure
[2] = target: hGPC3^core(R355A/R358A) (human) (UniProt P51654); experiment: native MS
Sequence of hGPC3^core(R355A/R358A) (human) (P51654 32-483 R355A/R358A): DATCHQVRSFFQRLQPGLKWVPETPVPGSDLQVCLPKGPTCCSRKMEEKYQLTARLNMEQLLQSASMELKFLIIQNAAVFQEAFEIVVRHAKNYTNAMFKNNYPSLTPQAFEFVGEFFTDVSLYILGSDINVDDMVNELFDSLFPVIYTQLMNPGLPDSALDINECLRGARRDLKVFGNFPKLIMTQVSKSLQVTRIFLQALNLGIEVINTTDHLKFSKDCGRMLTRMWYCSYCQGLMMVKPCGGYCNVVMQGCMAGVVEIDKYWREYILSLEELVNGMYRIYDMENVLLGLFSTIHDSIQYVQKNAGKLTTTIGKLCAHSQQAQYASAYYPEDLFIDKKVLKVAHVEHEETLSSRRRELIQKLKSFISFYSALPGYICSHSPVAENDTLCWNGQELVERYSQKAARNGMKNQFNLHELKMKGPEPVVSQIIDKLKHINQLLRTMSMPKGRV

Which stoichiometry N [1] does the source give for “rattus norvegicus Unc5D residues 32-307 (rUnc5D^IgIgTSP) (from UniProt F1LW30 32-307) (domain or fragment)” here?
The stoichiometry N was 4.

What about the stoichiometry N (Unc5D per GPC3 (1:1)) [2] of the same substance?
Its stoichiometry N (Unc5D per GPC3 (1:1)) is 1.

And the stoichiometry N (Unc5D per GPC3 (2:2)) [2]?
The stoichiometry N (Unc5D per GPC3 (2:2)) was 1.

What about the stoichiometry N (Unc5D per GPC3 (4:4)) [2] of the same substance?
Its stoichiometry N (Unc5D per GPC3 (4:4)) is 1.
